Data on 1 molecule can be found in publication PMC12723722, “Phosphorylation event changes the RNA binding mode of EZH2 disordered segment”.

One data set deals with EZH2 loop WT (UniProt Q15910 340-435). Description: EMSA; small but clear shift; EMSA: LightShift RNA EMSA kit protocol, 1-2 nM refolded RNA, 30 min room temperature, 4 or 6% native PAGE, 0.5x TBE; MST: Monolith NT.115, standard treated capillaries, 40% MST power; binding buffer, salt and pH not given in the material. Particulars: protein: recombinant; tags: His tag implied (pET22b, HisTrap); label: 3' biotin (EMSA); Cy5 aminoallyl-UTP for labelled RNA; hairpin (predicted).

Another data set concerns the target Thymosin beta 4 (Tβ4) (UniProt P62328 2-44, not fully specified). Description: EMSA; EMSA: LightShift RNA EMSA kit protocol, 1-2 nM refolded RNA, 30 min room temperature, 4 or 6% native PAGE, 0.5x TBE; MST: Monolith NT.115, standard treated capillaries, 40% MST power; binding buffer, salt and pH not given in the material. Particulars: protein: recombinant; label: 3' biotin (EMSA); Cy5 aminoallyl-UTP for labelled RNA; hairpin (predicted).

Sequence of Thymosin beta 4 (Tβ4) (P62328 2-44): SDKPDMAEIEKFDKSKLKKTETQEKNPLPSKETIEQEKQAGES
Sequence of EZH2 loop WT (Q15910 340-435): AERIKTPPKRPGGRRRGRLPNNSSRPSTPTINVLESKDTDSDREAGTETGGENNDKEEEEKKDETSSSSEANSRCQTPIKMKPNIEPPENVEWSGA

B1: R50 (structured_RNA)
RNA: AAGAAUGGCCUCGCGGAGGCAUGCGUCAUGCUAGCGUGCGGGGUACUCUU
For B1, the binding result was “binds” with EZH2 loop WT and “no binding” in the data set with Thymosin beta 4 (Tβ4).
